T1: BoNT/C1 holotoxin (Clostridium botulinum, UniProt P18640 2-1291)
T1 sequence: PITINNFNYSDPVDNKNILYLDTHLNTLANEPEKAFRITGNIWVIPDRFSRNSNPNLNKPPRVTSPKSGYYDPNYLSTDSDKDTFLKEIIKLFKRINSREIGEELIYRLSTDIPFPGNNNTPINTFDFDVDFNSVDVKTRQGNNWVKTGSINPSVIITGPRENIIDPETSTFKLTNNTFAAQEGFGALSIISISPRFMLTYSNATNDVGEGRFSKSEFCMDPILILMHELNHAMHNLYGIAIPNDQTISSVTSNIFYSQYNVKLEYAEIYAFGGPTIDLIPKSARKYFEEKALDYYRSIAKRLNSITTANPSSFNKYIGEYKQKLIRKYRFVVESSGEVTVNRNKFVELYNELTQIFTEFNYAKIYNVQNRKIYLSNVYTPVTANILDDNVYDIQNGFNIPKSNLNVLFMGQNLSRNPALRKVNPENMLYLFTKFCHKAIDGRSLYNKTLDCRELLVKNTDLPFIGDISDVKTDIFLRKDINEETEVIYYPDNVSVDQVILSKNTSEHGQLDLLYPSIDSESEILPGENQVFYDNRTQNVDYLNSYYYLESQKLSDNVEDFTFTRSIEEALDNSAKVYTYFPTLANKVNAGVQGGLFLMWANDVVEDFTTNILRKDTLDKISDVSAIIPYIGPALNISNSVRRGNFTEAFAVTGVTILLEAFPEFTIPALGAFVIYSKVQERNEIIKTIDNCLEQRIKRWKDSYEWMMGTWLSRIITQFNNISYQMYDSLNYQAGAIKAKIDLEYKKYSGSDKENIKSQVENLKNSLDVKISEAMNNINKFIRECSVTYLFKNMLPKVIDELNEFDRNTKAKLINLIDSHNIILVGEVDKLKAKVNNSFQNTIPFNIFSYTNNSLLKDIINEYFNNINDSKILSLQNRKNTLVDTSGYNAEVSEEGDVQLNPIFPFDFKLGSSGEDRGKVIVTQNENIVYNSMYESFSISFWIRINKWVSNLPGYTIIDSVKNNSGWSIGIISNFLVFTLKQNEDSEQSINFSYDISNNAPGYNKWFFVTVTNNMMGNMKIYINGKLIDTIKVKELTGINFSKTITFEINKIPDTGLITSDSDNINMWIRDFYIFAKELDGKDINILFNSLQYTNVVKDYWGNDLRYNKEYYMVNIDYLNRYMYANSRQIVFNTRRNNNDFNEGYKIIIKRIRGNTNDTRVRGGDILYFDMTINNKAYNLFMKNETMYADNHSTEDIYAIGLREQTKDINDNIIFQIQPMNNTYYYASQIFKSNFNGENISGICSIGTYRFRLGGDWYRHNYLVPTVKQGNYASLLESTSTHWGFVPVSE

B1: 4C4.1 IgG (antibody, V domains shown)
VH: QVQLVESGPGLVKPSQTLSLTCSVSGASINNSPYFWNWFRQFPGKGLEWIGYIYWSGSTNYNPSLKSRLAMSVDTSKNQFSLKLTSATAADTAVYYCARDQGGGTVVKENWFDPWGQGTLVTVSS
VL: ETTLTQSPSSLSASVGDRVSITCRASQSISNYLNWYQQKPGKAPKLLIYAASSLQSGVPSRFSGSGSGTDFTLTISSLQPEDFATYYCQQSYSDPPTFGQGTKVEIK
B2: 4C4.2 IgG (antibody, V domains shown)
VH: B1 VH
VL: DIQMTQSPSTLSASVGDRVTITCRASQSIGTYLNWYQQKPGRAPTLLVSRTSNLHTGVPSRFSGDGSGSHFSLTIDSLQPEDFATYYCQQSHTSPVTFGQGTKVEIK
B3: 4C4 IgG (antibody, V domains shown)
VH: B1 VH
VL: DIVMTQSPSSLSASVGDRLTMTCQASQDIGKHLNWYQQKAGKPPKLLIYGASNLKTGVPSRFSAGVSWTDFTFTISNVQPEDVATYYCQQSYSTPPTFGQGTKVEIK
B4: 8DC1.2 IgG (antibody, V domains shown)
VH: QVTLKESGGGLVQPGRSLTLSCPLSGFTSSDYVLHWVRQAPGTGLDWVAVISSDGTKAYYGDSVKGRFTISRDTSKNTLLLQMNSPRAEDTAIYYCAISTRGPFDIWGHGTMVTVSS
VL: DIQMTQSPSSLSAFVGDRITITCRASRGVSNYLAWYQQKPGKAPKLLIYAASSLQSGVPSRFSGSGSGTEFTLTISGLQPDDFATYYCQQYNAYPLTFGGGTKLEIK
B5: 4C4 scFv (scFv, V domains shown)
VH: B1 VH
VL: DIVMTQSPSSLSASVGDRLTMTCQASQDIGKHLNWYQQKAGKPPKLLIYGASNLKTGVPSRFSAGVSWTDFTFTISNVQPEDVATYYCQQSYSTPPTFGQGTKVEIKR
B6: 4C4.2 scFv (scFv, V domains shown)
VH: B1 VH
VL: DIQMTQSPSTLSASVGDRVTITCRASQSIGTYLNWYQQKPGRAPTLLVSRTSNLHTGVPSRFSGDGSGSHFSLTIDSLQPEDFATYYCQQSHTSPVTFGQGTKVEIKR
B7: 4C4.1 scFv (scFv, V domains shown)
VH: B1 VH
VL: ETTLTQSPSSLSASVGDRVSITCRASQSISNYLNWYQQKPGKAPKLLIYAASSLQSGVPSRFSGSGSGTDFTLTISSLQPEDFATYYCQQSYSDPPTFGQGTKVEIKR
B8: 4C10 scFv (scFv, V domains shown)
VH: QVQLVESGGGAVQPGESLRLSCAASGFTFSGFDMHWVRQSPGRGLEWVARISHDGSMADYADSLRGRFTISRDNPKNTLYLHMNSLRVEDTALYYCAKDRWRSGSYPAFEKWGQGTMVTVSS
VL: QSVPTQPASVSGSPGQSITISCTGTSSDVGAYNYVSWYQQHPGKAPKLMIYDVSDRPSGVSNRFSGSKSGNTASLTISGLQAEDEADYYCSSYTSSSTYVFGTGTKLTVL

Molecular target: T1, BoNT/C1 holotoxin
Experiment: IgG KinExA

First: B1
Second: B2
The Kd of the first is 15-fold higher: 0.539 nM for the first, 0.035 nM for the second. The second binds more tightly here.

B3 and B4 are within 1.5-fold of each other in Kd: 0.835 nM for the first, 0.736 nM for the second.

Molecular target: T2, BoNT/DC mosaic toxin (Clostridium botulinum)
Experiment: IgG KinExA

Going from B1 to B2, the Kd rises from 0.058 nM to 0.126 nM (2.2-fold).

With B3 the Kd was 0.577 nM.

Molecular target: T1, BoNT/C1 holotoxin
Experiment: yeast scFv FACS

Compared with B5, B6 is 2.7-fold lower in Kd: 3 nM for the first, 1.1 nM for the second.

For B7, the Kd was 1.5 nM.

Molecular target: T2, BoNT/DC mosaic toxin
Experiment: yeast scFv FACS

Going from B8 to B5, the Kd falls from 107 nM to 0.58 nM (180-fold). The second binds more tightly here.

First: B6
Second: B7
The Kd of the first is 2.2-fold higher: 0.13 nM for the first, 0.06 nM for the second. The second binds more tightly here.

Molecular target: T1, BoNT/C1 holotoxin
Experiment: yeast scFv FACS
Remark: another data set of the same source

In the case of B5, the Kd is reported as 2.6 nM.

— patent publication US20180208680A1 (published 2018)
